The values below come from patent US20260116960A1 (SHANGHAI HONGCHENG BIOPHARMACEUTICAL, published 2026).

In test [1] the target is T1, human PD-1 on the cell surface (human, UniProt Q15116 25-288).
T1 construct: whole, on cells; also called cell surface PD-1
Nature of the test: flow cytometry on activated human T cells (CD3+), PE anti-human IgG Fc. The method, then: Human peripheral blood mononuclear cells (PBMCs, Miaoshun (Shanghai) Biotechnology Co., Ltd., Catalog No.: A19K154025) were rapidly thawed in a 37° C. water bath, resuspended in T cell isolating solution, and counted. After centrifugation at 400 g for 10 minutes, the supernatant was removed and the cells were resuspended to 5×10⁷ cells/mL with T cell separation buffer. T cells were isolated according to the procedure of a T cell isolation kit (Stemcell, Catalog No.: 19051), and the obtained T cells were resuspended in culture medium. The cells were counted using NucleoCounter NC-200 and the T cell density was adjusted to approximately 1×10⁶ cells/mL. Dynabeads containing anti-CD3 and anti-CD28 antibodies (Invitrogen™, Catalog No.: 11132D) and 10 ng/ml hIL-2 (Peprotech, Catalog No.: 200-02) were added and cultured in a 37° C., 5% CO₂ incubator for 3 days. After removing Dynabeads and supernatant, the activated T cells were resuspended in FACS buffer. The cell density was adjusted to about 1×10⁶ cells/mL, and 100 μL of cell solution was added into a 96-well U-bottom plate, 1×10⁵ cells/well. After centrifugation at 500 g for 5 minutes, the supernatant was discarded and 100 μL of the trispecific antibody solution of the present application serially diluted 3-fold with FACS buffer was added in triplicate, with a starting concentration of 200 nM. After mixing, incubated at 4° C. for 60 minutes. After centrifugation and washing three times with FACS buffer, 100 μL/well of PE anti-human IgG Fc (Biolegend, Catalog No.: 366903) was added and incubated at 4° C. for 50 minutes. After washing the plate three times with FACS buffer, 100 μL/well of BV421 anti-human CD3 antibody (OKT3) (Biolegend, Catalog No.: 317344) was added and incubated at 4° C. for 50 minutes. After washing the plate three times with FACS buffer, 70 μL/well of PBS solution was added to resuspend the cells, and the fluorescent signal on CD3 T cells was detected on a flow cytometer (BD Cellesta). The binding activity was fitted using a four-parameter model, and the EC₅₀ value of each antibody binding to T cells was calculated.
In general terms: In flow cytometry, cells or beads pass a laser one at a time.

In test [2] the target is T2, human CTLA-4 protein (Acro, Catalog No. CT4-H52H9) (human, UniProt P16410 36-161).
T2 construct: Bought protein
T2 sequence (P16410 36-161 limits assumed): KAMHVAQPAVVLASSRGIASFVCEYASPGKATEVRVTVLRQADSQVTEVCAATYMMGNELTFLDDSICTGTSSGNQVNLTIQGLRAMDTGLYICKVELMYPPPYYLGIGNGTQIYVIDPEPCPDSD
Nature of the test: BLI (Octet RED96e), antibody on AHC sensor, antigen as analyte 6.25-100 nM, 1:1 model. The method, then:
Octet® RED96e (ForteBio) was used to detect the affinity of trispecific antibodies to human PD-1, CTLA-4 and VEGFA. The specific method was as follows: the AHC Sensor was immersed in PBST (PBS containing 0.02% Tween) buffer for 10 minutes to activate the Sensor. The ligand (antibody to be tested) was diluted to 5 μg/mL with PBST buffer. […] The diluted ligand and analyte were added to the corresponding wells at 200 μL/well in triplicate. Program parameter settings: loading: 180 s, association: 180 s, dissociation: 600 s, regeneration: Gly-HCl pH 1.5, 30s, regeneration 3 times. […] Curve fit acceptance criteria: Full R\hat{ }2≥0.95.
On the technique in general: Biolayer interferometry detects binding as a change in optical thickness at a sensor tip.

Test [3] addresses T3, human CTLA-4 on the cell surface (human, UniProt P16410 36-223).
T3 construct: whole, on cells; also called CHO-hCTLA-4 cells; CHOK1-hCTLA4 cells
Briefly: flow cytometry, CHO-hCTLA-4 cells, batch FACS#4.

The target in test [4] is T2, human CTLA-4 protein (Acro, Catalog No. …). Briefly: ELISA, plate coated with human CTLA-4 protein. On the technique in general: An ELISA detects its analyte on a solid surface through an enzyme-linked reagent.
Test [5] has as its target T3, human CTLA-4 on the cell surface. Nature of the test: flow cytometry, CHO-hCTLA-4 cells, batch FACS#3.
Test [6] addresses T4, human PD-1 protein (Acro, Catalog No. PD1-H5221) (human, UniProt Q15116 25-167).
T4 construct: Bought protein; also called human PD1-his; not shown: his tag
Briefly: ELISA, plate coated with human PD-1 protein. Here is the method: (§1) ELISA was used to determine the activity of the trispecific antibodies binding to the PD-1 protein: 1 μg/mL human PD-1 protein (Acro, Catalog No.: PD1-H5221) was used to coat a high-adsorption 96-well ELISA plate and incubated at 4° C. overnight. On the next day, the plate was washed three times with PBST solution and blocked with 1% BSA-PBS solution at 37° C. for 1 hour. At the same time, 3-fold gradient dilutions of the antibody were prepared with 1% BSA-PBS solution, with a starting concentration of 10 nM. The antibodies of each gradient concentration were added to the blocked 96-well ELISA plate at 100 µL/well in triplicate and incubated at 37° C. for 1 hour. The plate was then washed three times with 0.05% PBST solution, and 100 μL/well of HRP-labeled secondary antibody (Sigma, Catalog No.: A0170) diluted at 1:5000 was added to the ELISA plate and incubated at 37° C. for 1 hour. The plate was washed three times with 0.05% PBST solution and developed with TMB. The absorbance of the 96-well ELISA plate at 450 nm was detected by an ELISA reader. The OD₄₅₀ value was fitted using a four-parameter model to calculate the EC₅₀ value of each antibody binding to PD-1.

Test [7] concerns the target T1, human PD-1 on the cell surface. Briefly: flow cytometry competition, 293T-hPD-1 cells, biotin-human PD-L1. Here is the method: 50 μL of antibody solution serially diluted 3-fold in FACS buffer was added in triplicate, with a starting concentration of 200 nM. After mixing, incubated at 4° C. for 60 minutes. After washing three times with FACS buffer, 100 μL/well of 1:800 diluted PE Streptavidin was added and incubated at 4° C. for 50 min. After washing three times with FACS buffer, 150 μL/well of PBS was added to resuspend the cells, and the fluorescence signal was detected on a flow cytometer (BECKMAN COULTER cytoFLEX). The four-parameter model was used to fit the binding activity and the IC₅₀ value of the blocking activity of each antibody was calculated.

Test [8] addresses T3, human CTLA-4 on the cell surface. Briefly: flow cytometry competition, 293T-hPD-1-hCTLA-4 cells (PD-1 co-expressed), biotin-human CD80. The method, then: PD-1 and CTLA-4 are co-expressed on functionally exhausted T cells in the tumor microenvironment, and the expression level of PD-1 is higher than that of CTLA-4. […] 200 μL of the cells were added to a 96-well U-bottom plate, approximately 1.4×10⁵ cells/well. After centrifugation at 300 g for 5 minutes, the supernatant was discarded. […] After washing three times with FACS buffer, 100 μL/well of 1:800 diluted PE Streptavidin was added and incubated at 4° C. for 50 min. After washing three times with FACS buffer, 150 μL/well of PBS was added to resuspend the cells, and the fluorescence signal was detected on a flow cytometer (BECKMAN COULTER cytoFLEX). The binding activity was fitted using a four-parameter model, and the IC₅₀ value of the blocking activity of each antibody was calculated.

Test [9] addresses human PD-1 protein (Acro, PD1-H5257) (human, UniProt Q15116 25-167). Briefly: competitive ELISA, PD-1 coated, biotin-PD-L1 as labelled ligand. Here is the method:
The next day, the plate was washed three times with PBS solution and blocked with 1% BSA-PBS solution at 37° C. for 1 hour. […] 100 μL of the antibody-protein mixture was added to each well of the blocked 96-well ELISA plate and incubated at 37° C. for 1 hour. After washing four times with PBST, 100 μL of Strep-HRP (BD, Catalog No. 554066) diluted 1:5000 was added to each well of the ELISA plate and incubated at 37° C. for 1 hour. After washing 4 times with PBST, TMB was used for color development. The absorbance at 450 nm and 630 nm was detected by a microplate reader, and OD450-OD630 was calculated. The fluorescence intensity was fitted using a four-parameter model, and the IC₅₀ value of the blocking activity of each antibody was calculated.

For test [10], the target named is T5, human VEGF165-his protein (Acro, Catalog No. VE5-H5248) (human, UniProt P15692-4 27-191).
T5 construct: Bought protein; also called hVEGF165-His; VEGFA; not shown: his tag
T5 sequence (P15692 other isoform, or with tags, fused parts or gaps limits assumed): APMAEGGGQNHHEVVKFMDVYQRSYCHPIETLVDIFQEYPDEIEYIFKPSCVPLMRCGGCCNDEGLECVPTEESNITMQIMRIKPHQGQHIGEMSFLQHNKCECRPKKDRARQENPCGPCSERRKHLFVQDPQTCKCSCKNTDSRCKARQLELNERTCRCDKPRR
Briefly: ELISA, plate coated with human VEGF165-his. The method, then:
as §1
The binding activity of the trispecific antibodies to VEGFA protein was detected by ELISA method as described in Section 2.1. The used human VEGF165-his protein was purchased from Acro, Catalog No.: VE5-H5248.

T1 sequence (Q15116 25-288): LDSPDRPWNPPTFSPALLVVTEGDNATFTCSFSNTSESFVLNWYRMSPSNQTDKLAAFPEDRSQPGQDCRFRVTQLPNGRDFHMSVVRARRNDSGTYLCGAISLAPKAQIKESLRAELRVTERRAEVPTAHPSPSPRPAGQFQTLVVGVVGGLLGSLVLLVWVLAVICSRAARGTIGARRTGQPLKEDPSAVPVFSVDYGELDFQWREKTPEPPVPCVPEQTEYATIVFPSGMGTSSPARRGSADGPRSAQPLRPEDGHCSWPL
T3 sequence (P16410 36-223): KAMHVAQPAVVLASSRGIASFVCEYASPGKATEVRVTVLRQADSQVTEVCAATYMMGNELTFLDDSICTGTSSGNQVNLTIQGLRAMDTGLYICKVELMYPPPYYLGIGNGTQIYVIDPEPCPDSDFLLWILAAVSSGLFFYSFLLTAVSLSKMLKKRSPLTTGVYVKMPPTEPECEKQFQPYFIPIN
Chain of human PD-1 protein (Acro, PD1-H5257) (Q15116 25-167 limits assumed): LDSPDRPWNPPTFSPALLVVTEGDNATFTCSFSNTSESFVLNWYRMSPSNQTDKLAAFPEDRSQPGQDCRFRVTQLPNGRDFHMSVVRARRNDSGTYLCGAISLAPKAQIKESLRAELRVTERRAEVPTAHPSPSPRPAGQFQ
T4 sequence (Q15116 25-167 limits assumed): as above

B1: camrelizumab (antibody, V domains shown)
VH: EVQLVESGGGLVQPGGSLRLSCAASGFTFSSYMMSWVRQAPGKGLEWVATISGGGANTYYPDSVKGRFTISRDNAKNSLYLQMNSLRAEDTAVYYCARQLYYFDYWGQGTTVTVSS
VL: DIQMTQSPSSLSASVGDRVTITCLASQTIGTWLTWYQQKPGKAPKLLIYTATSLADGVPSRFSGSGSGTDFTLTISSLQPEDFATYYCQQVYSIPWTFGGGTKVEIK
What is called EC50 is the concentration giving half of the maximal effect. A high value points to a need for much substance. In test [1], B1 showed an EC50 of 0.473 nM.

B2: sintilimab (antibody, V domains shown)
VH: QVQLVQSGAEVKKPGSSVKVSCKASGGTFSSYAISWVRQAPGQGLEWMGLIIPMFDTAGYAQKFQGRVAITVDESTSTAYMELSSLRSEDTAVYYCARAEHSSTGTFDYWGQGTLVTVSS
VL: DIQMTQSPSSVSASVGDRVTITCRASQGISSWLAWYQQKPGKAPKLLISAASSLQSGVPSRFSGSGSGTDFTLTISSLQPEDFATYYCQQANHLPFTFGGGTKVEIK
B2 yielded an EC50 in test [1] of 0.231 nM.

B3: 202F1 (VHH)
VHH: EVQLLESGGGLVQPGGSLRLSCAASGSIFSINHMAWYRQAPGKQRELVAGVNSRGTTNYVDSVKGRFTISRDNSKNTLYLQMNSLRAEDTAVYYCRALGGAVAAWGQGTLVTVSS
notes: also called anti-CTLA-4 nanobody (202F1)
The term Kd denotes the free concentration of one partner at which half of the binding sites on the other are occupied at equilibrium, for simple one-to-one binding. B3 showed a Kd in test [2] of 0.203 nM. This counts as sub-nanomolar.

B4: 202F1-hIgG1 (antibody, V domains shown)
VH: B3 VHH
notes: also called anti-CTLA-4 nanobody 202F1 with hIgG1 constant region
Take B4: the EC50 in test [3] was 1.05 nM; in test [4] it was 0.078 nM; in test [5], 1.71 nM.

B5: HC010-F14 (trispecific antibody, human IgG4 S228P)
heavy 1: EVQLVESGGGLVQPGGSLRLSCAASGFTFSSYGMSWVRQAPGKCLEWVSTISGGGRDTYYPDSVKGRFTISRDNSKNTLYLQMNSLRAEDTAVYYCARQNGITWFADWGQGTLVTVSSGGGGSGGGGSGGGGSGGGGSDIQMTQSPSSLSASVGDRVTITCRASESVDNYGISFMNWYQQKPGKAPKLLIYAASNQGSGVPSRFSGSGSGTDFTLTISSLQPEDFATYYCQQSKEVPWTFGCGTKVEIKGGGGSGGGGSGGGGSGGGGSESKYGPPCPPCPAPEFLGGPSVFLFPPKPKDTLMISRTPEVTCVVVDVSQEDPEVQFNWYVDGVEVHNAKTKPREEQFNSTYRVVSVLTVLHQDWLNGKEYKCKVSNKGLPSSIEKTISKAKGQPREPQVYTLPPCQEEMTKNQVSLWCLVKGFYPSDIAVEWESNGQPENNYKTTPPVLDSDGSFFLYSRLTVDKSRWQEGNVFSCSVMHEALHNHYTQKSLSLSLGAGGGGSGGGGSGGGGSGGGGSEVQLVESGGGLVQPGGSLRLSCAASGYTFTNYGMNWVRQAPGKCLEWVGWINTYTGEPTYAADFKRRFTFSLDTSKSTAYLQMNSLRAEDTAVYYCAKYPHYYGSSHWYFDVWGQGTLVTVSSGGGGSGGGGSGGGGSGGGGSDIQMTQSPSSLSASVGDRVTITCSASQDISNYLNWYQQKPGKAPKVLIYFTSSLHSGVPSRFSGSGSGTDFTLTISSLQPEDFATYYCQQYSTVPWTFGCGTKVEIK
heavy 2: EVQLLESGGGLVQPGGSLRLSCAASGSIFSINHMAWYRQAPGKQRELVAGVNSRGTTNYVDSVKGRFTISRDNSKNTLYLQMNSLRAEDTAVYYCRALGGAVAAWGQGTLVTVSSGGGGSGGGGSGGGGSGGGGSESKYGPPCPPCPAPEFLGGPSVFLFPPKPKDTLMISRTPEVTCVVVDVSQEDPEVQFNWYVDGVEVHNAKTKPREEQFNSTYRVVSVLTVLHQDWLNGKEYKCKVSNKGLPSSIEKTISKAKGQPREPQVCTLPPSQEEMTKNQVSLSCAVKGFYPSDIAVEWESNGQPENNYKTTPPVLDSDGSFFLVSRLTVDKSRWQEGNVFSCSVMHEALHNRFTQKSLSLSLGAGGGGSGGGGSGGGGSGGGGSEVQLVESGGGLVQPGGSLRLSCAASGYTFTNYGMNWVRQAPGKCLEWVGWINTYTGEPTYAADFKRRFTFSLDTSKSTAYLQMNSLRAEDTAVYYCAKYPHYYGSSHWYFDVWGQGTLVTVSSGGGGSGGGGSGGGGSGGGGSDIQMTQSPSSLSASVGDRVTITCSASQDISNYLNWYQQKPGKAPKVLIYFTSSLHSGVPSRFSGSGSGTDFTLTISSLQPEDFATYYCQQYSTVPWTFGCGTKVEIK
notes: also called H010-F14
As a reminder, the IC50 is the concentration at which inhibition is half-maximal. Low values mean greater potency in that assay, high ones weaker potency in that assay. In the case of B5, the EC50 stood at 0.472 nM in test [6], 0.734 nM in test [4] and 0.096 nM in test [10]. Besides, the IC50 was more than 200 nM in [7], 0.116 nM in test [8] and 2.41 nM in [9].
